The text below walks through data of patent US12559559B2, “Targeting Galectin-9 as a therapeutic strategy for T-cell exhaustion in T-cell acute lymphoblastic leukemia” (DANA-FARBER CANCER INSTITUTE, INC., priority 2019, dated 2026).

In this test the target is T1, Galectin-9 (LGALS9) (Homo sapiens, UniProt O00182).
T1 construct: cultured from normal donors with and without T-ALL supernatant (containing LGALS9) for three days; endogenous in cells; host or cells: DND-41 T-ALL cell line (culture supernatant)
The test is described as follows: T-cell exhaustion functional assay / HAVCR2-LGALS9 pathway blocking in activated CD8+ T-cells (qRT-PCR). The format is cell-based. Conditions: recombinant Galectin-9 2.5 μg/mL added to the culture, 72 hours. The method, then: HAVCR2 mRNA expression in activated CD8+ T-cells cultured with T-ALL supernatant (from DND-41 cells; orange) or control media (blue), in the presence/absence of anti-human Galectin-9 (10 μg/mL) or recombinant Galectin-9 (2.5 μg/mL). n.s. P>0.05, **P≤0.01 and ***P≤0.001, based on 3 technical replicates, using two-sided t-test.
T-cells were isolated using Easy Sep Human T-cell Enrichment kit (StemCell Technologies), activated and expanded with Dynabeads Human T-activator CD3/CD28 (ThermoFisher Scientific) in X-VIVO 15 (Lonza) with 5% of human AB serum, and 50 U/mL IL-2 (Miltenyi Biotech). For T-cell exhaustion functional assays, activated CD8′ T-cells were cultured in X-VIVO 15 media or in supernatant media of DND-41 cell line, with 50 U/mL IL-2. For HAVCR2-LSGAL9 pathway blocking experiments, activated CD8^+ T-cells were cultured in X-VIVO 15 media or in supernatant media of DND-41 T-ALL supplemented with anti-human Galectin-9 10 μg/mL (Thermo Fisher Scientific) or recombinant Galectin-9 2.5 μg/mL (R&D systems) for 72 hours.
RNA was isolated using RNeasy Mini Kit (Qiagen), followed by reverse transcription with SuperScript III Reverse Transcriptase (ThermoFisher Scientific). Gene expression was quantified by quantitative real-time PCR using Power SYBR Green PCR Master Mix (Applied Biosystems, Vial instrument). […]

T1 sequence (O00182 whole entry): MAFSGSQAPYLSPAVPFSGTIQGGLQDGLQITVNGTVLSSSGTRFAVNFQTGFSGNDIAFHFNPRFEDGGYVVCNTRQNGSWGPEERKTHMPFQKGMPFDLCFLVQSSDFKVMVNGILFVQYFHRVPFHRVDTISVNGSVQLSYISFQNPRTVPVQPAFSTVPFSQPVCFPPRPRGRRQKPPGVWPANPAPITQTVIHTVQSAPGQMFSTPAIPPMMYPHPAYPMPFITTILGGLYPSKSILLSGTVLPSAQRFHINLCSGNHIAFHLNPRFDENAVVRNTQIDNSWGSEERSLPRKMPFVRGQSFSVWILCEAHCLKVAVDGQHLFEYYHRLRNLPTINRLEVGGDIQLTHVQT

B1: recombinant soluble LGALS9: recombinant Galectin-9 (R&D systems), used at 2.5 μg/mL (protein)
chain: MAFSGSQAPYLSPAVPFSGTIQGGLQDGLQITVNGTVLSSSGTRFAVNFQTGFSGNDIAFHFNPRFEDGGYVVCNTRQNGSWGPEERKTHMPFQKGMPFDLCFLVQSSDFKVMVNGILFVQYFHRVPFHRVDTISVNGSVQLSYISFQNPRTVPVQPAFSTVPFSQPVCFPPRPRGRRQKTQTVIHTVQSAPGQMFSTPAIPPMMYPHPAYPMPFITTILGGLYPSKSILLSGTVLPSAQRFHINLCSGNHIAFHLNPRFDENAVVRNTQIDNSWGSEERSLPRKMPFVRGQSFSVWILCEAHCLKVAVDGQHLFEYYHRLRNLPTINRLEVGGDIQLTHVQT
Take B1: the “Exhaustion marker expression in activated CD8+ T-cells” value was “upregulation of exhaustion markers”.
